Laboratory results taken from patent US20140072563A1 (Regeneron, published 2014).

Key:
[1] = target: T1, hErbB3.mFc (soluble dimeric human ErbB3 extracellular domain fused to mouse Fc) (human); assay: SPR (Biacore), 25 C, mAb capture format
T1 construct: called dimeric
T1 chain: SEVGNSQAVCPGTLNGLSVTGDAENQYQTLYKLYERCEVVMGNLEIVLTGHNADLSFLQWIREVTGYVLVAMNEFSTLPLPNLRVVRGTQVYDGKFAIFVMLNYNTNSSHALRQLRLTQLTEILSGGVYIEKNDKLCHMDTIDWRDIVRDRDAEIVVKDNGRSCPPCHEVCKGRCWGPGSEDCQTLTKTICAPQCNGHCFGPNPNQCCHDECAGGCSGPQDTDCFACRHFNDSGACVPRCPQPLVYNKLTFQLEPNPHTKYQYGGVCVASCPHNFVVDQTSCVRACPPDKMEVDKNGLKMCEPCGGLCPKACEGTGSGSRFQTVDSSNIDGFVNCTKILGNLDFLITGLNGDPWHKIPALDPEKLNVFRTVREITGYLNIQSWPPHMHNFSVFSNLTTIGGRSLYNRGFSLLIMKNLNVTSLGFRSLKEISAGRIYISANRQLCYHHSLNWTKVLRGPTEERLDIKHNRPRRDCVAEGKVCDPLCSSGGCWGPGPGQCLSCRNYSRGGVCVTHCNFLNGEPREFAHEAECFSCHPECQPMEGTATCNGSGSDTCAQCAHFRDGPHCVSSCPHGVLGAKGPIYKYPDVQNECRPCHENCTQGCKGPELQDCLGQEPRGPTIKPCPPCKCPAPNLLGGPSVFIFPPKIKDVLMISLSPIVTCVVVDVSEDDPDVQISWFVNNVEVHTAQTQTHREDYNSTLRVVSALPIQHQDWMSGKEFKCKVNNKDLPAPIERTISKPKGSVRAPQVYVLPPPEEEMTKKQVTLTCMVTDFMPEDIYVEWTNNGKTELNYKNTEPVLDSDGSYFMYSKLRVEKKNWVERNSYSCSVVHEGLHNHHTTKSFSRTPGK
Procedure: (§1) (Tables 2-4). Measurements were conducted on a Biacore 2000 or T100 instrument. […] Kinetic association (kₐ) and dissociation (kd) rate constants were determined by processing and fitting the data to a 1:1 binding model using Scrubber 2.0 curve fitting software.

[2] = target: T2, hErbB3.mmh (soluble monomeric human ErbB3 extracellular domain with C-terminal myc-myc-hexahistidine tag) (human, UniProt P21860 20-642); assay: SPR (Biacore), 25 C, mAb capture format
Procedure: as §1

[3] = target: T1, hErbB3.mFc (soluble dimeric human ErbB3 …); assay: SPR (Biacore), 37 C, mAb capture format
Procedure: as §1

[4] = target: T2, hErbB3.mmh (soluble monomeric human …); assay: SPR (Biacore), 37 C, mAb capture format
Procedure: as §1

[5] = target: T3, hErbB3.hFc (soluble dimeric human ErbB3 extracellular domain fused to human Fc) (human); assay: blocking ELISA: antibody + 50 pM ErbB3-hFc on neuregulin1b-coated plate
T3 construct: called dimeric
T3 sequence (chain, as listed by the source limits assumed): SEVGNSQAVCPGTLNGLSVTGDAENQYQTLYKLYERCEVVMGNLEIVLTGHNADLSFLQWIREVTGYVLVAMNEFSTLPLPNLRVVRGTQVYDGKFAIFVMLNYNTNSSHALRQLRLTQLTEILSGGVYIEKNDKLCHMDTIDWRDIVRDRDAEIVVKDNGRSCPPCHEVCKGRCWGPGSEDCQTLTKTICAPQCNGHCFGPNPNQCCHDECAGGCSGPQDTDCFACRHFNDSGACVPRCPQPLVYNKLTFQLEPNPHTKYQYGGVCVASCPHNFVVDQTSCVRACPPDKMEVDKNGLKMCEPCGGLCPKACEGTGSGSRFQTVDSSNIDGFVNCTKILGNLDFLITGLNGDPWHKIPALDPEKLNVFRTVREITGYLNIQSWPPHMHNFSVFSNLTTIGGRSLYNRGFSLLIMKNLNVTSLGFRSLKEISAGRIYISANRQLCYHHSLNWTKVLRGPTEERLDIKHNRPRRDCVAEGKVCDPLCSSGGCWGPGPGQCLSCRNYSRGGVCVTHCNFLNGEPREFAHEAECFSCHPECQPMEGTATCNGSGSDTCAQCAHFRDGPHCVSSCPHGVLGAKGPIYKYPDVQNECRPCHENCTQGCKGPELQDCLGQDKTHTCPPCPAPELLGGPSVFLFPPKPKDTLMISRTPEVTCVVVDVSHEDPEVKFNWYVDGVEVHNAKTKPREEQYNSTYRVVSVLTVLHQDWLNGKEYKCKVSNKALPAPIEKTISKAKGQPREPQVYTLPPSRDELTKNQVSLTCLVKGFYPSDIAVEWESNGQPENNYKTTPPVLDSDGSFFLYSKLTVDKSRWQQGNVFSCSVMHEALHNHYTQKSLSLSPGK
Excerpt: To further characterize anti-hErbB3 mAbs of the present invention, their ability to block ligand binding was examined via ELISA. […] Plates were washed and non-sequestered (plate bound) ErbB3 was detected with an anti-Fc poly conjugated with horseradish peroxidase (HRP). Plates were developed with TMB (3,3′,5,5′-tetramethylbenzidine) and neutralized with sulfuric acid before reading absorbance at 450 nm on a Victor X5 plate reader. Data analysis used a sigmoidal dose-response model within Prism™ software. […] Maximal blocking for each antibody was calculated by taking the difference in absorbance from zero to 50 nM antibody on the inhibition curve, divided by the difference in absorbance from 50 pM to zero ErbB3 on the dose curve.

[6] = target: T3, hErbB3.hFc (soluble dimeric human ErbB3 …); assay: SPR (Biacore), 25 C, mAb capture format
Procedure: as §1

Binder | Kd [1] [pM] | T½ [1] [min] | koff [1] [s⁻¹] | kon [1] [M⁻¹ s⁻¹] | Kd [2] [nM] | T½ [2] [min] | koff [2] [s⁻¹] | kon [2] [M⁻¹ s⁻¹] | Kd [3] [pM] | T½ [3] [min] | koff [3] [s⁻¹] | kon [3] [M⁻¹ s⁻¹] | Kd [4] [nM] | T½ [4] [min] | IC50 [5] [nM] | Maximal Blocking (%) [5] [%] | Kd [6] [nM] | T½ [6] [min] | koff [6] [s⁻¹] | kon [6] [M⁻¹ s⁻¹] | also measured
H4H1819N (antibody, V domains shown, Human IgG4 Fc (H4H prefix); same variable domains as H1M1819N) VH: EVQLVESGGGVVRPGGSLRLSCAASGFTFDDYAMHWVRQAPGKGLEWVAGISWNSGSIDYADSVKGRFTISRDNAKNSLYLQMNSLRAGDTALYYCAKDILDLDYYGLDVWGQGTTVTVSS VL: DIQMTQSPSSLSASVGDRVTITCRASQDISSYLAWYQQKPGKVPNLLIYDASSLQSGVPSRFSGSGSGTDFTLTLSSLQPEDFASYYCQNYNSAPYTFGQGTKLEIK | 0.943 | 748 | 1.54e-05 | 1.64e+07 | 0.0435 | 33 | 0.000351 | 8.1e+06 | 1.53 | 206 | 5.62e-05 | 3.68e+07 | 0.129 | 7 |  |  |  |  |  |  | koff [4]: 0.00156 s⁻¹; kon [4]: 1.21e+07 M⁻¹ s⁻¹
H2M1936N (antibody, V domains shown, Hybridoma chimeric antibody: human variable domains, mouse IgG2 Fc (H2M prefix)) VH: EMQLVESGGGLVQPDRSLRLSCAASGFNFDNYAIHWVRQAPGKGLEWVSGISWNSGNIGYADSVKGRFTISRDNAKNSLFLLMNSLRPDDSALYYCTRGYNWNALSPMDVWGQGTTVTVSS VL: DIQMTQSPSSLSASVGDRVTVTCRASQGISNYLAWYQQKPGKVPKLLIYAASTLQSGVPSRFSGSGSGTDFTLTISSLQPEDVASYYCQNYNSAPMTFGQGTKVEIK |  |  |  |  | 6.59 | 41 | 0.000285 | 43200 |  |  |  |  |  |  | 0.527 | 91 | 1.09 | 166 | 6.97e-05 | 64100 | 
H2M1937N (antibody, V domains shown, Hybridoma chimeric antibody: human variable domains, mouse IgG2 Fc (H2M prefix)) VH: QVQLQQWDAGLLKPSETLSLTCAVYGGSFSSYYWSWIRQPPGKGLEWIGEINHRGSTNYNPSLKSRVTISVDTSKNQFSLKLRSVTAADTAVYYCARGGVAARPDWHFFDYWGQGTLVTVSS VL: DIQMTQSPSSLSASVGDRVTITCRASQVIRNDLGWFQQRPGKAPKRLIYAASSLQSEVPSRFSGSGSGTEFTLTITSLQPEDFATYYCLQHNSYPLTFGQGTRLEIK |  |  |  |  | 0.682 | 205 | 5.63e-05 | 82600 |  |  |  |  |  |  | 0.044 | 95 | 0.116 | 908 | 1.27e-05 | 110000 | 
H4H1821N (antibody, V domains shown, Human IgG4 Fc (H4H prefix); same variable domains as H2M1821N) VH: EVQLVESGGGLVQPGRSLRLSCAASGFTFDDYAMHWVRQAPGKGLEWVSSISWNSGSIGYADSVKGRFTISRDNAKNSLYLQMNSLKPEDTALYYCTKDTDYGDYLDAFDIWGQGTMVAVAS VL: not shown | 0.355 | 2660 | 4.33e-06 | 1.22e+07 | 0.051 | 60 | 0.000192 | 3.8e+06 | 1.89 | 326 | 3.55e-05 | 1.87e+07 | 0.167 | 11 |  |  |  |  |  |  | koff [4]: 0.00108 s⁻¹; kon [4]: 6.49e+06 M⁻¹ s⁻¹
H1M1940N (antibody, V domains shown, Hybridoma chimeric antibody: human variable domains, mouse constant domains (H1M prefix, mouse Fc)) VH: QVQVVESGGGVVQPGRSLRLSCAASGFTFSDYGMHWVRQAPGKGLEWVAIISYDGSNKYYADSVKGRFTVSRDNSKNTLYLQLDSLRPEDAAVFYCAREGAFNLDYYAMDVWGQGTTVTVSS VL: AIQMTQSPSSLSASVGDRVTITCRASQDIRNDLGWYQQKPGKAPNLLIYAASSLQSGVPSRFSGSGSGTDFTLTISSLQPEDFATYYCLQDSNYPLTFGGGTKVEIK |  |  |  |  | 0.477 | 84 | 0.000138 | 289000 |  |  |  |  |  |  | 0.53 | 80 | 0.0529 | 475 | 2.43e-05 | 460000 | 
H2M1938N (antibody, V domains shown, Hybridoma chimeric antibody: human variable domains, mouse IgG2 Fc (H2M prefix)) VH: EVQLVESGGGVVRPGGSLRLSCAASGFTFDDYGMSWVRQVPGKGLEWVSGLNWNGGITGYTDSVKGRFTISRDNAKNSLYLQMNSLRAEDTAFYHCARDSGDQDAFDIWGQGTMVTVSS VL: QIVMTQSPATLSVSPGERATLSCRASQSITPYLAWYQQKPGQTPRLLIYGVSTRATGIPARFSGSGSGTEFTLTISSLQSEDFAVYYCQQYDNWYTFGQGTKLEIK |  |  |  |  | 0.599 | 80 | 0.000144 | 241000 |  |  |  |  |  |  | 0.0249 | 85 | 0.0301 | 851 | 1.36e-05 | 451000 | 
